The supplement of paper PMC10567573

B1: TRIM15 (parent)
chain: LSQMGAQSSGKILLCPLCQEEEQA

Variants of: B1
Test: protein stability index of a GFP-peptide fusion (GPS, HEK-293T) (PSI 1-6); higher = more stable
Conditions: c terminus: a fixed tail appended
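Also: lentivirally expressed fusions sorted by FACS into six bins by GFP to DsRed ratio, PSI derived from sequencing read proportions per bin multiplied by bin number.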

Protein stability index of substitutions, site by site:
K11: H 2.72 | A 3.14 | M 3.12 | T 3 | P 3.6 | N 4.26 | E 3.11 | L 1.76 | G 2.27 | I 3.03 | R 3.03 | Y 2.64 | D 2.81 | S 3.79 | C 2.79 | W 2.76 | F 2.44 | V 2.04 | Q 3.9
S8: T 3.55 | Y 3.49 | W 2.65 | V 3.51 | R 3.89
C18: H 4.7 | L 4.82 | I 3.49 | M 4.61 | K 4.27 | D 5.2 | F 3.81 | N 4.38 | P 3.47 | E 5.13 | A 5.26
L13: Q 4.1 | A 4.87 | M 4.74 | R 4.71 | G 4.65 | N 4.63 | I 4.08 | F 4.09 | K 4.65 | D 4.5 | C 4.67 | H 5.52 | E 4.24 | T 4.51 | S 4.5 | Y 4.25 | P 3.97
L14: I 3.91 | R 4.15 | A 5.21 | Q 4.52 | N 3.56 | D 4.72 | Y 4.23 | T 4.66 | F 3.59 | M 3.98 | C 3.94 | V 2.99 | W 2.93 | H 3.36 | S 4.72
S9: F 2.36 | Y 3.9 | Q 2.65 | W 2.96 | K 3.78 | R 2.99 | T 3.8 | N 3 | I 3 | L 3.4 | P 3.49 | H 3.71 | G 2.64 | E 2.93 | C 3.86 | D 3.7 | M 2.57 | A 3.07
C15: E 5.1 | M 4.64 | T 5.05 | S 4.98 | R 4.43 | K 4.65 | F 4.16 | N 5.22 | H 4.74 | Q 4.96 | Y 4.39 | L 3.9 | G 5.51 | D 5.58 | W 4.47 | P 4.96 | I 3.77
G10: H 3.71 | W 2.55 | N 4.54 | F 2.74 | V 3.19 | R 3.22 | K 3.71 | M 3.83 | T 3.71 | L 2.53 | D 4.3 | P 3.78 | Q 3.58 | S 3.79 | E 3.89 | C 3.86 | Y 2.83 | I 2.5
L17: S 4.24 | W 3.57 | M 3.19 | Y 3.34 | H 3.79 | N 4.43 | R 4.31 | C 3.76 | F 3.23 | T 4.3 | V 3.79 | G 4.13 | P 5.04 | A 3.63 | Q 4.19 | K 3.6 | D 4.97
I12: H 3.51 | A 4.19 | K 4.04 | Y 3.61 | N 3.09 | S 4.57 | D 4.21 | M 3.79 | T 3.42 | Q 4.27 | F 3.52 | L 4.04 | E 3.56 | G 4.59 | V 4.5
P16: A 2.92 | R 3.39 | H 3.8 | C 2.59 | T 3.91 | M 3.98 | K 4.19 | D 4.05 | N 4.1 | Y 2.97 | L 3.37 | Q 4.22 | W 2.9 | V 3.29 | F 4.36
